Assay results: patent US20210002363A1 (PHANES THERAPEUTICS, published 2021)
Numbering of substitutions follows the chain as printed.

Assays:
[1] = target: T1, Recombinant extracellular domain of human FOLR1 (Novoprotein, Cat#: C784) (human, UniProt P15328 25-233, limits assumed); test: ELISA on immobilized FOLR1 extracellular domain; O.D. 450 nm
T1 construct: Bought reagent; also called recombinant FOLR1; immobilized FOLR1 extracellular domain

[2] = target: T2, FOLR1 on SK-OV-3 cells (ATCC HTB-77) (Homo sapiens (Human), UniProt P15328 25-234); test: FACS on SK-OV-3 cells; MFI
T2 construct: Endogenous FOLR1 of the cell line; also called cells that are known to express FOLR1

[3] = target: T1, Recombinant extracellular domain of …; test: ELISA on immobilized FOLR1 extracellular domain; O.D. 450 nm; remark: listed apart in the source
[4] = target: T1, Recombinant extracellular domain of …; test: as above; remark: listed apart in the source
[5] = target: T2, FOLR1 on SK-OV-3 cells (ATCC HTB-77); test: FACS on SK-OV-3 cells; Alexa Fluor 488 F(ab')2 goat anti-human IgG Fc; MFI
Method: To assess the binding of the chimeric anti-FOLR1 mAbs to cells that are known to express FOLR1, SK-OV-3 (ATCC® HTB-77™) cells were plated at 80,000 cells per well on a 96-well non-binding U-bottom plate (Greiner Bio-One, Cat#: 650901). In some experiments, 90,000 cells per well were used. The cells were incubated in 50 μL FACS buffer (HBSS with 0.1% BSA and 0.05% sodium azide) containing mAbs at different concentrations on ice for 15 minutes. After wash, cells were incubated in 50 μL FACS buffer containing 3.5 μg/mL F(ab′)2-Goat anti-Human IgG Fc conjugated to Alexa Fluor® 488 (Invitrogen, Cat#: H10120) on ice for 15 minutes in dark and washed again. Cells were analyzed using an Attune NxT flow cytometer. MFI, mean fluorescence intensity.

[6] = target: T1, Recombinant extracellular domain of …; test: SPR (Biacore 8k), mAb captured on protein A chip, recombinant FOLR1 as analyte, 1:1 model
Method: The interaction of the chimeric anti-FOLR1 mAbs and FOLR1 was measured by Surface Plasmon Resonance (SPR) (Biacore 8k, GE Healthcare). Briefly, an anti-FOLR1 mAb was immobilized to a protein A sensor chip (GE Healthcare, Cat#: 29-1275-56) in HBS-P buffer (0.01 M HEPES pH 7.4, 0.15 M NaCl, 0.05% v/v Surfactant P20) with an injection flow rate at […]. The recombinant FOLR1 (Novoprotein, Cat#: C784) at variant concentrations was loaded with the flow rate of 30 μL/min in HBS-P buffer. Following antigen loading, the surface was regenerated with 10 mM glycine-HCl (pH 1.5). Sensor grams were fit with a 1:1 binding model using Biacore 8k evaluation software (GE Healthcare).

[7] = target: T1, Recombinant extracellular domain of …; test: ELISA on plate-coated recombinant human FOLR1 extracellular domain; anti-human IgG-HRP; O.D. 450 nm
Method: The Purified chimeric mAbs were tested in an ELISA assay for their ability to bind to immobilized human FOLR1. Recombinant extracellular domain of human FOLR1 (Novoprotein, Cat#: C784) in carbonate coating buffer was coated on a 96-well plate at room temperature for 1 hour. The plate is blocked by 5% BSA in TBST for 1 hour at room temperature. In each well of an individual plate, mAbs at various concentrations were incubated for 1 hour at room temperature. The plate was washed and the binding to FOLR1 was detected by anti-human IgG conjugated to horseradish peroxidase (hIgG-HRP) (ThermoFisher Scientific, Cat#: H10007) with incubation for 1 hour at room temperature. Then after washing, the ELISA was developed using One-step Detection Solution (ThermoFisher Scientific, Cat#: 34028) and measured as the absorbance at 450 nm.

[8] = target: T1, Recombinant extracellular domain of …; test: ELISA on immobilized FOLR1 extracellular domain; O.D. 450 nm; remark: listed apart in the source
[9] = target: T2, FOLR1 on SK-OV-3 cells (ATCC HTB-77); test: FACS on SK-OV-3 cells; MFI; remark: listed apart in the source
[10] = target: T1, Recombinant extracellular domain of …; test: ELISA on immobilized FOLR1 extracellular domain; O.D. 450 nm; remark: listed apart in the source
[11] = target: T1, Recombinant extracellular domain of …; test: as above; remark: listed apart in the source
[12] = target: T2, FOLR1 on SK-OV-3 cells (ATCC HTB-77); test: FACS on SK-OV-3 cells; MFI; remark: listed apart in the source
[13] = target: T1, Recombinant extracellular domain of …; test: ELISA on immobilized FOLR1 extracellular domain; O.D. 450 nm; remark: listed apart in the source

T2 sequence (P15328 25-234 limits assumed): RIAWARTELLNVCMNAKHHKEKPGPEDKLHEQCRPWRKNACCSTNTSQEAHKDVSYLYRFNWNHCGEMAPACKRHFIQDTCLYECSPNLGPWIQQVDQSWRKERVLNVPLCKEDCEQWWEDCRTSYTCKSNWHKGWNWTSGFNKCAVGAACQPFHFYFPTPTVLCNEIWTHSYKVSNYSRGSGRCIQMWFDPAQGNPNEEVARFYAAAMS
T1 sequence (P15328 25-233 limits assumed): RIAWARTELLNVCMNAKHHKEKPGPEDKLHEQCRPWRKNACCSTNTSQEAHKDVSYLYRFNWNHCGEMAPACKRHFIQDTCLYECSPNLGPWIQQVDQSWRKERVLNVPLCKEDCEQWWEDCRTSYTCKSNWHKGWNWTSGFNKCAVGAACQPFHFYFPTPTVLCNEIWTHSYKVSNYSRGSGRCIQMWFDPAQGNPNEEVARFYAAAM

B1: F17-H1L1 (antibody, V domains shown)
VH: EVQLVETGGGLIQPGGSLRLSCAASGFTFSDFGMHWIRQAPGKGLEWVAYMSYTPGTFHYADTVKDRFTISRDNSKNTLYLQMNSLRAEDTAVYYCARVHVGTVDYWGQGTLVTVSS
VL: EVVLTQSPATLSLSPGERATLSCRASQNINNNLHWFQQKPGQAPRLLIKYASQSISGIPARFSGSGSGTDFTLTISSLEPEDFAVYFCQQSNSWPALTFGQGTKVEIK
notes: also called humanized F17 mAb H1L1
[1]
  EC50 (read off the curve): 0.1 to 0.2 nM

B2: F10-H1L3 (antibody, V domains shown)
VH: EVQLVQSGAEVKKPGSSVKVSCKASGYAFSSSWMNWVRQAPGQGLEWIGRIYPGDGYTHYNGMFKGRASLTADKSTSTGYMELSSLRSEDTAVFFCTRHGDFPYWYFDVWGRGTLVTVSP
VL: DIQMTQSPSTLSASVGDRVTITCRASENIDSYLAWYQQKPGRAPKLLVYAATNLAVGVPSRFSGSGSGTEYTLTISSLQSEDFATYYCQHHYSTPPTFGQGTKLEIK
notes: also called humanized F10 mAb H1L3
[2]
  EC50 (read off the curve): ~3 nM

B3: chimeric anti-FOLR1 mAb F5 (antibody, V domains shown)
VH: EVQLVESGGELVKPGGSLKLSCAVSGFTFSNYGMSWVRQTPDKRLEWVATISSGGSYTYYPDSVKGRFTISRDNDKNTLYLQMSSLKSEDTAMYYCSTQGSSGYVGYWGQGTTLTVSS
VL: DIQMTQSPSSLSAFLGGKVTITCKASQDITNFIGWYQHKPGKGPRLLISYTSILESGIPSRFSGSGSGRDYSFSISNLEPEDIATYYCLQYYNLWTFGGGTKLEIK
notes: also called Chimeric mAb F5
[3]
  EC50 (read off the curve): 0.1 to 0.2 nM
[4]
  EC50 (read off the curve): 0.2 to 0.3 nM
[5]
  EC50 (read off the curve): ~0.4 nM
[6]
  Kd: 0.352 nM
[7]
  EC50 (read off the curve): ~0.1 nM

B4: chimeric anti-FOLR1 mAb F10 (antibody, V domains shown)
VH: QVQLQQSGPELVKPGASVKISCKASGYAFSSSWMNWVRQRPGKGLEWIGRIYPGDGYTHYNGMFKGKATLTADKSSSTGYMQLSSLTSEDSAVYFCTRHGDFPYWYFDVWGTGTTVTVSS
VL: DIQMTQSPASLSASVGESVTITCRASENIDSYLAWYQQKQGKSPQLLVYAATNLAVGVPSRFSGSGSGTQYTLKINSLQSEDVARYYCQHHYSTPPTFGGGTKLEIK
notes: also called Chimeric mAb F10
[8]
  EC50 (read off the curve): ~0.2 nM
[5]
  EC50 (read off the curve): ~0.9 nM
[6]
  Kd: 0.704 nM
[7]
  EC50 (read off the curve): ~0.2 nM

B5: F20-H2L2 (antibody, V domains shown)
VH: QVQLVQSGAEVKKPGSSVKVSCKASGYTFASYYLYWVRQAPGQGLEWIGEINPRSGGTNFNEKFKSRATVTVDASTSTAYMELSSLRSEDTAVYYCSRSGRLRGFYTMDYWGQGTLVTVSS
VL: DIVMTQSPDSLAVSLGERATINCKAGENVGSYVSWYQQKPGQSPKLLIYGASNRYTGVPDRFSGSGSATDFTLTISSLQAEDVAVYYCGQTYRFLTFGQGTKVEIK
notes: also called humanized F20 mAb H2L2
[9]
  binding result: binds
[10]
  binding result: binds

B6: F20-H1L4 (antibody, V domains shown)
VH: B5 VH with A74K
VL: DIQMTQSPSTLSASVGDRVTITCKAGENVGSYVSWYQQKPGKAPKLLIYGASNRYTGVPARFSGSGSATEFTLTISSLQPEDFATYYCGQTYRFLTFGQGTKVEVK
notes: also called humanized F20 mAb H1L4
[11]
  EC50 (read off the curve): ~0.3 nM

B7: F20-H2L1 (antibody, V domains shown)
VH: B5 VH
VL: B5 VL with S43P
notes: also called humanized F20 mAb H2L1
[9]
  binding result: binds
[10]
  binding result: binds

B8: F20-H2L3 (antibody, V domains shown)
VH: B5 VH
VL: B6 VL with E81D
notes: also called humanized F20 mAb H2L3
[10]
  EC50 (read off the curve): ~0.3 nM

B9: F20-H3L4 (antibody, V domains shown)
VH: B5 VH with R67K, A74K, S77N
VL: B6 VL
notes: also called humanized F20 mAb H3L4
[12]
  EC50 (read off the curve): ~1 nM
[11]
  EC50 (read off the curve): ~0.3 nM

B10: F5-H1L1 (antibody, V domains shown)
VH: EVQLLESGGGLVQPGGSLRLSCAVSGFTFSNYGMSWVRQAPGKGLEWVATISSGGSYTYYPDSVKGRFTISRDNSKNTLYLQMNSLRAEDTAVYYCSTQGSSGYVGYWGQGTLVTVSS
VL: DIQMTQSPSSVSASVGDRVTITCKASQDITNFIGWYQHKPGKAPKLLISYTSILESGVPSRFSGSGSGRDYTLTISSLQPEDFATYYCLQYYNLWTFGGGTKVEIK
notes: also called humanized F5 mAb H1L1
[3]
  EC50 (read off the curve): ~0.4 nM

B11: F5-H4L2 (antibody, V domains shown)
VH: B10 VH with L5V, S75D, N84S
VL: B10 VL with R69T
notes: also called humanized F5 mAb H4L2
[13]
  EC50 (read off the curve): ~0.4 nM

B12: F5-H4L1 (antibody, V domains shown)
VH: B10 VH with L5V, S75D, N84S
VL: B10 VL
notes: also called humanized F5 mAb H4L1
[13]
  EC50 (read off the curve): ~0.4 nM
